Reference: patent US20240181007A1, “COMPOSITIONS AND METHODS FOR TREATING PULMONARY HYPERTENSION” (Acceleron Pharma Inc., priority 2021, published 2024)

How the values were obtained:
BMP9 [1] = molecular target: T1, BMP9 (Homo sapiens, UniProt Q9UK05); assay: Biacore-based binding assay (surface plasmon resonance), BMP9; details: SPR 37° C.; for binding to BMP9 compared to unmodified ActRIIB-Fc (in words): compared to ActRIIB-G1Fc / ActRIIB-Fc homodimer; for reduction in affinity for BMP9 compared with reduction in affinity for GDF11 or activin A: FIG. 9, compared to Fc fusion with unmodified ActRIIB extracellular domain
T1 sequence (Q9UK05 320-429): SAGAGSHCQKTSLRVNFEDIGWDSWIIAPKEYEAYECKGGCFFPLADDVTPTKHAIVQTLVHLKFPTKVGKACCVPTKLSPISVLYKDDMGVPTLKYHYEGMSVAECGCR
Procedure: (§1) To determine ligand binding profiles of variant ActRIIB-Fc homodimers, a Biacore™-based binding assay was used to compare ligand binding kinetics of certain variant ActRIIB-Fc polypeptides. ActRIIB-Fc polypeptides to be tested were independently captured onto the system using an anti-Fc antibody. Ligands were then injected and allowed to flow over the captured receptor protein. ActRIIB-G1Fc was used as the control polypeptide.
as §1, with “protein.” for “protein. ActRIIB-G1Fc was used as the control polypeptide.”
(§2) A Biacore™-based binding assay was used to compare the ligand binding kinetics of an ActRIIB-Fc:ActRIIB(L79E)-Fc heterodimer with those of unmodified ActRIIB-Fc homodimer. Fusion proteins were captured onto the system using an anti-Fc antibody. Ligands were then injected and allowed to flow over the captured receptor protein at 37° C. Results are summarized in the table below, in which ligand off-rates (kd) most indicative of effective ligand traps are denoted in bold.

Activin B = molecular target: T2, Activin B (Homo sapiens, UniProt P09529); assay: Biacore-based binding assay (surface plasmon resonance), activin B; details: SPR 37° C.; compared to ActRIIB-G1Fc / ActRIIB-Fc homodimer
T2 sequence (P09529 293-407): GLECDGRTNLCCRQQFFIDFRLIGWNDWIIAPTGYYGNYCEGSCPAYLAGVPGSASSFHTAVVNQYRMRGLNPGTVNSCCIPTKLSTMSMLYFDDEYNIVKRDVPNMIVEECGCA
Procedure: as §1, §2

GDF8 = molecular target: T3, GDF8 (Homo sapiens, UniProt O14793); assay: Biacore-based binding assay (surface plasmon resonance), GDF8; details: SPR 37° C.; compared to ActRIIB-G1Fc / ActRIIB-Fc homodimer
T3 sequence (O14793 267-375): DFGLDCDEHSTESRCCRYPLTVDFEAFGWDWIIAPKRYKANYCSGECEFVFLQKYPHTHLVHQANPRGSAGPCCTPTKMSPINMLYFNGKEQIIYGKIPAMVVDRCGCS
Procedure: as §1, §2

GDF11 [2] = molecular target: T4, GDF11 (Homo sapiens, UniProt O95390); assay: Biacore-based binding assay (surface plasmon resonance), GDF11; details: SPR 37° C.; compared to ActRIIB-G1Fc / ActRIIB-Fc homodimer
T4 sequence (O95390 299-407): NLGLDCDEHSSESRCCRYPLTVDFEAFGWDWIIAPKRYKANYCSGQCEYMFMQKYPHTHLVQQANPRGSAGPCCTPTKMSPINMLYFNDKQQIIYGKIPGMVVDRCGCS
Procedure: as §1
as §1, with “protein.” for “protein. ActRIIB-G1Fc was used as the control polypeptide.”
as §2

BMP9 [3] = molecular target: T1, BMP9; assay: A204 cell-based pGL3(CAGA)12 reporter gene assay, signaling by BMP9; details: A204 reporter gene assay
Text: (§3) To determine activity of variant ActRIIB-Fc polypeptides, an A204 cell-based assay was used to compare effects among variant ActRIIB-Fc polypeptides on signaling by activin A, activin B, GDF8, GDF11, BMP9, and BMP10, in comparison to ActRIIB-G1Fc. In brief, this assay uses a human A204 rhabdomyosarcoma cell line (ATCC®: HTB-82™) derived from muscle and the reporter vector pGL3(CAGA)12 (Dennler et al., 1998, EMBO 17: 3091-3100) as well as a Renilla reporter plasmid (pRLCMV) to control for transfection efficiency. The CAGA12 motif is present in TGF-β responsive genes (e.g., PAI-1 gene), so this vector is of general use for ligands that can signal through Smad2/3, including activin A. GDF11, and BMP9.
(§4) On day 1. A204 cells were transferred into one or more 48-well plates. On day 2, these cells were transfected with 10 μg pGL3(CAGA)12 or pGL3(CAGA)12(10 μg)+pRLCMV (1 pg) and Fugene. On day 3, ligands diluted in medium containing 0.1% BSA were preincubated with ActRIIB-Fc polypeptides for 1 hr before addition to cells. Approximately six hour later, the cells were rinsed with PBS and lysed. Cell lysates were analyzed in a luciferase assay to determine the extent of Smad activation.
(§5) This assay was used to screen variant ActRIIB-Fc polypeptides for inhibitory effects on cell signaling by activin A, activin B. GDF8, GDF11. BMP9, and BMP10. Potencies of homodimeric Fc fusion polypeptides incorporating amino acid substitutions in the human ActRIIB extracellular domain were compared with that of an Fc fusion polypeptide comprising unmodified human ActRIIB extracellular domain, ActRIIB-G1Fc. For some variants tested, it was not possible to calculate an accurate IC50, but signs of inhibition in the slope of the curves were detectable. For these variants, an estimate was included of the order of magnitude of the relative IC50, i.e. >10 nM or >100 nM instead of a definite number. Such data points are indicated by a (*) in Table 3 below. For some variants tested, there was no detectable inhibition in the slope of the curves over the concentration range tested, which is indicated by “ND” in Table 4.
as §3, with “A,” for “A, activin B, GDF8,”, “GDF11,” for “GDF11, BMP9,”, “and BMP9.” for “and BMP10, in comparison to ActRIIB-G1Fc.”, “(Dennler el” for “(Dennler et”, “activin A,” for “activin A.”
as §4, with “1, A-204” for “1. A204”, “μg)” for “pg)”
(§6) This assay was used to screen variant ActRIIB-Fc polypeptides for inhibitory effects on cell signaling by activin A, GDF11, and BMP9. Potencies of homodimeric Fc fusion polypeptides incorporating amino acid substitutions in the human ActRIIB extracellular domain were compared with that of an Fc fusion polypeptide comprising unmodified human ActRIIB extracellular domain.

GDF11 [4] = molecular target: T4, GDF11; assay: A204 cell-based pGL3(CAGA)12 reporter gene assay, signaling by GDF11; details: A204 reporter gene assay
Text: as §3, §4, §5
as §3, with “A,” for “A, activin B, GDF8,”, “GDF11,” for “GDF11, BMP9,”, “and BMP9.” for “and BMP10, in comparison to ActRIIB-G1Fc.”, “(Dennler el” for “(Dennler et”, “activin A,” for “activin A.”
as §4, with “1, A-204” for “1. A204”, “μg)” for “pg)”
as §6

Activin A = molecular target: T5, Activin A (Homo sapiens, UniProt P08476); assay: A204 cell-based pGL3(CAGA)12 reporter gene assay, signaling by activin A; details: A204 reporter gene assay
T5 sequence (P08476 311-426): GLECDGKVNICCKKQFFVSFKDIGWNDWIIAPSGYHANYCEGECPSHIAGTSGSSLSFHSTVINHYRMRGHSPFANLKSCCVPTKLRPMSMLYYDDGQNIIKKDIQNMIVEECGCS
Text: as §3, §4, §5
as §3, with “A,” for “A, activin B, GDF8,”, “GDF11,” for “GDF11, BMP9,”, “and BMP9.” for “and BMP10, in comparison to ActRIIB-G1Fc.”, “(Dennler el” for “(Dennler et”, “activin A,” for “activin A.”
as §4, with “1, A-204” for “1. A204”, “μg)” for “pg)”
as §6

BMP9 [5] = molecular target: T6, BMP9 (UniProt Q9UK05 320-429); assay: cell-based or functional assay
T6 sequence (looked up): T1 sequence (Q9UK05 320-429)

GDF11 [6] = molecular target: T7, GDF11 (UniProt O95390 299-407); assay: cell-based or functional assay
T7 construct: also called Growth and differentiation factor-11; BMP11
T7 sequence (looked up): T4 sequence (O95390 299-407)

| binding to BMP9 compared to unmodified ActRIIB-Fc (in words) (BMP9 [1]) | affinity for activin B compared to unmodified ActRIIB-Fc (in words) (Activin B) | inhibition of BMP9 compared to fusion polypeptide with unmodified ActRIIB extracellular domain (in words) (BMP9 [3]) | IC50 (ng/ml), A204 CAGA12 luciferase reporter assay (BMP9 [5]) | IC50 (ng/ml), A204 CAGA12 luciferase reporter assay (GDF11 [6]) | Substance | GDF8 binding compared to unmodified ActRIIB-Fc (in words) (GDF8) | GDF11 binding compared to unmodified ActRIIB-Fc (in words) (GDF11 [2]) | reduction in affinity for BMP9 compared with reduction in affinity for GDF11 or activin A (BMP9 [1]) | selectivity of antagonism (activin A and GDF11 over BMP9) compared to unmodified ActRIIB-Fc (BMP9 [3]) | inhibition of GDF11 compared to fusion polypeptide with unmodified ActRIIB extracellular domain (in words) (GDF11 [4]) | inhibition of activin A compared to fusion polypeptide with unmodified ActRIIB extracellular domain (in words) (Activin A) | further results |
| --- | --- | --- | --- | --- | --- | --- | --- | --- | --- | --- | --- | --- |
|  |  |  | 40000 ng/mL | 389 ng/mL | F82W/N83A (homodimeric ActRIIB-Fc construct) (Fc fusion) |  |  |  |  |  |  |  |
|  |  |  | 165 ng/mL | 45 ng/mL | K74R (homodimeric ActRIIB-Fc construct) (Fc fusion) |  |  |  |  |  |  |  |
|  |  |  | 1210 ng/mL | 591 ng/mL | R40A (homodimeric ActRIIB-Fc construct) (Fc fusion) |  |  |  |  |  |  |  |

Second part, the substance before the results:

| Substance | binding to BMP9 compared to unmodified ActRIIB-Fc (in words) (BMP9 [1]) | affinity for activin B compared to unmodified ActRIIB-Fc (in words) (Activin B) | inhibition of BMP9 compared to fusion polypeptide with unmodified ActRIIB extracellular domain (in words) (BMP9 [3]) | IC50 (ng/ml), A204 CAGA12 luciferase reporter assay (BMP9 [5]) | IC50 (ng/ml), A204 CAGA12 luciferase reporter assay (GDF11 [6]) | GDF8 binding compared to unmodified ActRIIB-Fc (in words) (GDF8) | GDF11 binding compared to unmodified ActRIIB-Fc (in words) (GDF11 [2]) | reduction in affinity for BMP9 compared with reduction in affinity for GDF11 or activin A (BMP9 [1]) | selectivity of antagonism (activin A and GDF11 over BMP9) compared to unmodified ActRIIB-Fc (BMP9 [3]) | inhibition of GDF11 compared to fusion polypeptide with unmodified ActRIIB extracellular domain (in words) (GDF11 [4]) | inhibition of activin A compared to fusion polypeptide with unmodified ActRIIB extracellular domain (in words) (Activin A) | further results |
| --- | --- | --- | --- | --- | --- | --- | --- | --- | --- | --- | --- | --- |
| F82I-N83R: homodimeric ActRIIB-G1Fc fusion with F82I and N83R substitutions; mature SEQ ID NO: 278 | decrease in binding to BMP9 | relatively high affinity for activin B |  |  |  | significant decrease in GDF8 and GDF11 binding | significant decrease in GDF8 and GDF11 binding |  |  |  |  |  |
| F82K-N83R: homodimeric ActRIIB-G1Fc fusion with F82K and N83R substitutions; mature SEQ ID NO: 332 | decrease in binding to BMP9 | relatively high affinity for activin B |  |  |  | significant decrease in GDF8 and GDF11 binding | significant decrease in GDF8 and GDF11 binding |  |  |  |  |  |
| F82K: homodimeric ActRIIB-G1Fc fusion with F82K substitution; mature SEQ ID NO: 42 |  |  | less potent inhibition of BMP9 |  |  |  |  | reduce ActRIIB binding affinity for BMP9 more than they reduce ActRIIB affinity for activin A or GDF11 | more selective antagonists of activin A and GDF11 | essentially undiminished inhibition of activin A and GDF11 | essentially undiminished inhibition of activin A and GDF11 | reduction in affinity for BMP9 compared with reduction in affinity for GDF11 or activin A (BMP9 [1]; listed as ActRIIB(F82K)-Fc): greater reduction in their affinity for BMP9 than for GDF11 |
| F82T-N83R: homodimeric ActRIIB-G1Fc fusion with F82T and N83R substitutions; mature SEQ ID NO: 335 | decrease in binding to BMP9 | relatively high affinity for activin B |  |  |  | significant decrease in GDF8 and GDF11 binding | significant decrease in GDF8 and GDF11 binding |  |  |  |  |  |
| K55A: homodimeric ActRIIB-G1Fc fusion with K55A substitution; mature SEQ ID NO: 33 |  |  | less potent inhibition of BMP9 |  |  |  |  | reduce ActRIIB binding affinity for BMP9 more than they reduce ActRIIB affinity for activin A or GDF11 | more selective antagonists of activin A and GDF11 | essentially undiminished inhibition of activin A and GDF11 | essentially undiminished inhibition of activin A and GDF11 | reduction in affinity for BMP9 compared with reduction in affinity for GDF11 or activin A (BMP9 [1]; listed as ActRIIB(K55A)-Fc): greater reduction in their affinity for BMP9 than for GDF11 |
| K55E: homodimeric ActRIIB-G1Fc fusion with K55E substitution; mature SEQ ID NO: 36 |  |  | less potent inhibition of BMP9 |  |  |  |  | reduce ActRIIB binding affinity for BMP9 more than they reduce ActRIIB affinity for activin A or GDF11 | more selective antagonists of activin A and GDF11 | essentially undiminished inhibition of activin A and GDF11 | essentially undiminished inhibition of activin A and GDF11 | reduction in affinity for BMP9 compared with reduction in affinity for GDF11 or activin A (BMP9 [1]; listed as ActRIIB(K55E)-Fc): greater reduction in their affinity for BMP9 than for GDF11 |
